The results in this text go back to article PMC5639329.

Data set [1] is described as follows: AUC.
A short description of data set [2]: AUC. This is another data set of the same source.

Like-named read-outs stand apart in the source and are kept apart here.

In data set [1], “HttQ25-eGFP (huntingtin exon 1 fragment with 25 glutamines fused to eGFP, expressed in D. melanogaster)” yielded a % aggregates (20-1000 S area) of 65% and a % monomer (1-20 S area) of 35%. Further, in data set [2], the % aggregates (20-1000 S area) is 66%; the % aggregates (20-1000 S area), Hsp70 co-expressed amounted to 62%; the % aggregates (20-1000 S area), average of all runs turned out to be 64.7%; the % monomer (1-20 S area) was 34%. In data set [2], this substance returned a % monomer (1-20 S area), Hsp70 co-expressed of 38% and a % monomer (1-20 S area), average of all runs of 35.3%.

In data set [2], “GFP-HttQ28 (huntingtin exon 1 fragment with 28 glutamines fused to GFP, expressed in C. elegans)” came in with a % aggregates (20-1000 S area) of 70% and a % monomer (1-20 S area) of 30%.

In the case of “HttQ97-eGFP (huntingtin exon 1 fragment with 97 glutamines fused to eGFP, expressed in D. melanogaster)”, in data set [1], the % aggregates (20-1000 S area) is 86% and the % monomer (1-20 S area) amounted to 14%. In data set [2], this substance yielded a % aggregates (20-1000 S area) of 82%; a % aggregates (20-1000 S area), Hsp70 co-expressed of 91%; a % aggregates (20-1000 S area), average of all runs of 85.6%; a % monomer (1-20 S area) of 18%. In data set [2], this substance had a % monomer (1-20 S area), Hsp70 co-expressed of 9% and a % monomer (1-20 S area), average of all runs of 14.7%.

In the case of “GFP-HttQ74 (huntingtin exon 1 fragment with 74 glutamines fused to GFP, expressed in C. elegans)”, in data set [2], the % aggregates (20-1000 S area) was 97% and the % monomer (1-20 S area) worked out at 3%.

In data set [1], “HttQ72-eGFP (huntingtin exon 1 fragment with 72 glutamines fused to eGFP, expressed in D. melanogaster)” gave a % aggregates (20-1000 S area) of 90% and a % monomer (1-20 S area) of 10%. In data set [2], this substance registered a % aggregates (20-1000 S area) of 93%; a % aggregates (20-1000 S area), average of all runs of 93.3%; a % monomer (1-20 S area) of 7%; a % monomer (1-20 S area), average of all runs of 6.7%.

In data set [1], “HttQ46-eGFP (huntingtin exon 1 fragment with 46 glutamines fused to eGFP, expressed in D. melanogaster)” showed a % aggregates (20-1000 S area) of 79% and a % monomer (1-20 S area) of 21%. Further, in data set [2], the % aggregates (20-1000 S area) is 76%; the % aggregates (20-1000 S area), Hsp70 co-expressed turned out to be 78%; the % aggregates (20-1000 S area), average of all runs was found to be 83.2%; the % monomer (1-20 S area) came out at 24%. In data set [2], the % monomer (1-20 S area), Hsp70 co-expressed was found to be 22% and the % monomer (1-20 S area), average of all runs amounted to 16.8%.
